Experimental data reported in patent US20250197495A1 (Bristol-Myers Squibb, published 2025).

Molecular target: T1, cynomolgus LAG-3 (cynomolgus)
T1 construct: whole, on cells; also called primate LAG-3
Assay: flow cytometry on transfected CHO cells and activated cynomolgus T cells; which cell type gives which end is not stated

B1: BMS-986016 (antibody, human IgG4 S228P, kappa, V domains shown)
VH: QVQLQQWGAGLLKPSETLSLTCAVYGGSFSDYYWNWIRQPPGKGLEWIGEINHRGSTNSNPSLKSRVTLSLDTSKNQFSLKLRSVTAADTAVYYCAFGYSDYEYNWFDPWGQGTLVTVSS
VL: EIVLTQSPATLSLSPGERATLSCRASQSISSYLAWYQQKPGQAPRLLIYDASNRATGIPARFSGSGSGTDFTLTISSLEPEDFAVYYCQQRSNWPLTFGQGTNLEIKR
notes: Fully human IgG4 with the stabilizing hinge mutation S228P; also called anti-LAG-3 antibody
- EC50: 21.5 to 34.3 nM
